Data on six molecules can be found in doi:10.1101/2024.11.15.623645 (bioRxiv, 2024).

Common to all, as to assay: SPR
(SPR reads the build-up and loss of mass on a sensor chip optically.)

The target in experiment [1] is 2G12 IgG BCR complex (membrane IgG with Igα/Igβ) (human | human (endogenous in Ramos)) (UniProt P11912).
Experiment [2] concerns the target 2G12 IgM BCR complex (membrane IgM with Igα/Igβ) (human | human (endogenous in Ramos)) (UniProt P11912).
In experiment [3] the target is HIV-1 Env gp140 trimer CH505TF v4.1 (non-biotinylated) (HIV-1 clade C, CH505 transmitted/founder, UniProt M4M3Q1, stabilised).

One may read the kon as the rate constant with which the complex forms. Read a low kon as slower complex formation. Take “HIV-1 Env gp140 trimer CH848 (non-biotinylated)”: the kon in experiment [1] and in experiment [2] was > 100000 M⁻¹ s⁻¹ each time.

Turning to “HIV-1 Env gp140 trimer CAP256 (non-biotinylated)”, the kon in experiment [1] and in experiment [2] was > 100000 M⁻¹ s⁻¹ in each case.

As for “HIV-1 Env gp140 trimer CH505TF v4.1 (non-biotinylated)”, the kon in experiment [1] and in experiment [2] was > 100000 M⁻¹ s⁻¹ each time.

For “HIV-1 Env gp140 trimer JRFL (non-biotinylated)”, the kon in experiment [1] and in experiment [2] was > 100000 M⁻¹ s⁻¹ each time.

For the molecule “HIV-1 Env gp140 trimer BG505 GT1.2 (non-biotinylated)”, the kon in experiment [1] and in experiment [2] was > 100000 M⁻¹ s⁻¹ throughout.

B1: 2G12 soluble IgG mAb (antibody, V domains shown)
VH: EVQLVESGGGLVKAGGSLILSCGVSNFRISAHTMNWVRRVPGGGLEWVASISTSSTYRDYADAVKGRFTVSRDDLEDFVYLQMHKMRVEDTAIYYCARKGSDRLSDNDPFDAWGPGTVVTVSP
VL: DVVMTQSPSTLSASVGDTITITCRASQSIETWLAWYQQKPGKAPKLLIYKASTLKTGVPSRFSGSGSGTEFTLTISGLQFDDFATYHCQHYAGYSATFGQGTRVEIK
With B1, the binding result in experiment [3] is recorded as “binds”.
